This test has as its target cathepsin B.

In turn, surugamide I (13) (peptide) displayed an IC50 of cathepsin B inhibition (fluorescence-based kit assay) of 9 µM.

The values above are taken from patent US20200079823A1.
